Measured values reported in paper PMC11021452, “Exposing the molecular heterogeneity of glycosylated biotherapeutics” (Nature Communications, 2024).
Positions count from the first letter of the chain named. Numbers in names are those of the source.

T1: IL-22 RA1 extracellular domain (ECD) (UniProt Q8N6P7 16-228)
T1 construct: Coated on the ELISA plate; also called IL22 receptor; IL22R1A
T1 sequence (looked up): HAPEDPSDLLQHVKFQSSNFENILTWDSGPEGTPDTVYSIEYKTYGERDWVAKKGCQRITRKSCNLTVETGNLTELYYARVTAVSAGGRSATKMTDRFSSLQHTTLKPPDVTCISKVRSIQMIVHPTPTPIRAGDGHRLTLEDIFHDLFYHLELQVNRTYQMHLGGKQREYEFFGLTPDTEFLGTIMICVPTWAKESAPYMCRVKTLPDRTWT

B1: enzymatically desialylated IL22-Fc (Fc fusion, UniProt Q9GZX6 34-179, looked up)
chain: APISSHCRLDKSNFQQPYITNRTFMLAKEASLADNNTDVRLIGEKLFHGVSMSERCYLMKQVLNFTLEEVLFPQSDRFQPYMQEVVPFLARLSNRLSTCHIEGDDLHIQRNVQKLKDTVKKLGESGEIKAIGELDLLFMSLRNACI
modifications: N-linked glycans with the sialic acids enzymatically removed
notes: IL22 cytokine of the IL22-Fc fusion UTTR1147A, same chain as m1; Same polypeptide as m1; differs only in the glycans; also called sialidase-treated IL22-Fc; source: IL22-Fc from cell culture fermentation, purified, then enzymatically desialylated
B2: IL22-Fc N21Q point mutant (Fc fusion, UniProt Q9GZX6 34-179, looked up)
chain: B1 chain with N21Q
modifications: N-linked glycans; the glycosylation site at N21 knocked out
notes: IL22 cytokine of the IL22-Fc fusion UTTR1147A with N21Q; Parent is m1; source: 10 day CHO cell culture fermentations, SP Sepharose Fast Flow ion exchange chromatography

Target: T1, IL-22 RA1 extracellular domain (ECD)
Test: ELISA; 96-well plate coated with IL-22 RA1 ECD; varying concentrations of IL22-Fc added in duplicate; bound IL22-Fc detected with goat anti-human IgG-HRP and TMB; potency by parallel curve program relative to the reference standard
Conditions: both partners purified

Binder	fold change in binding against control IL22-Fc [fold]	fold change in potency (binding ELISA) relative to wild type [fold]
B1	~2	–
B2	–	3.98
